Test results taken from article PMC3855848 (Chemistry & biology, 2013).
Where a chain is given by its changes, count along the chain named. Names may count otherwise.

Tests used:
[1] = target: actKR (actinorhodin type II polyketide ketoreductase) (Streptomyces coelicolor, UniProt P16544); test: NADPH fluorescence titration; format: binding
[2] = target: actKR (actinorhodin type II polyketide ketoreductase) (Streptomyces coelicolor, UniProt P16544, R220A); test: NADPH fluorescence titration; format: binding
Chain of actKR (actinorhodin type II polyketide ketoreductase) (Streptomyces coelicolor, UniProt P16544, R220A) (P16544 whole entry R220A): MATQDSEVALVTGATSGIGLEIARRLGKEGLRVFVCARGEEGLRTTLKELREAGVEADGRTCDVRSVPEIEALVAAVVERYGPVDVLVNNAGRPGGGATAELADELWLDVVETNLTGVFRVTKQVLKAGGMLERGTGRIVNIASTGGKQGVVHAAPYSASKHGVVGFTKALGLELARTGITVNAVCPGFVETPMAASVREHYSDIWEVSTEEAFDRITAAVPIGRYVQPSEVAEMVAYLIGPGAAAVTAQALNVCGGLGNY

[3] = target: actKR (actinorhodin type II polyketide ketoreductase) (Streptomyces coelicolor, UniProt P16544, R177A); test: NADPH fluorescence titration; format: binding
Chain of actKR (actinorhodin type II polyketide ketoreductase) (Streptomyces coelicolor, UniProt P16544, R177A) (P16544 whole entry R177A): as the sequence (P16544 whole entry R220A) above, with R177A, A220R counted along it

[4] = target: actKR (actinorhodin type II polyketide ketoreductase) (Streptomyces coelicolor, UniProt P16544, R38A); test: NADPH fluorescence titration; format: binding
Chain of actKR (actinorhodin type II polyketide ketoreductase) (Streptomyces coelicolor, UniProt P16544, R38A) (P16544 whole entry R38A): as the sequence (P16544 whole entry R220A) above, with R38A, A220R counted along it

[5] = target: actKR (actinorhodin type II polyketide ketoreductase) (Streptomyces coelicolor, UniProt P16544, R93A); test: NADPH fluorescence titration; format: binding
Chain of actKR (actinorhodin type II polyketide ketoreductase) (Streptomyces coelicolor, UniProt P16544, R93A) (P16544 whole entry R93A): as the sequence (P16544 whole entry R220A) above, with R93A, A220R counted along it

[6] = target: actKR (actinorhodin type II polyketide ketoreductase) (Streptomyces coelicolor, UniProt P16544, R65A); test: NADPH fluorescence titration; format: binding
Chain of actKR (actinorhodin type II polyketide ketoreductase) (Streptomyces coelicolor, UniProt P16544, R65A) (P16544 whole entry R65A): as the sequence (P16544 whole entry R220A) above, with R65A, A220R counted along it

purified protein = substrate: O=C1CCC[C@H]2CCCC[C@H]12; test: purified protein; format: biochemical, Streptomyces coelicolor; settings: co-substrate NADPH

Chain of actKR (actinorhodin type II polyketide ketoreductase) (Streptomyces coelicolor, UniProt P16544) (P16544 whole entry): as the sequence (P16544 whole entry R220A) above, with A220R counted along it

`NC(=O)C1=CN([C@@H]2O[C@H](COP(=O)(O)OP(=O)(O)OC[C@H]3O[C@@H](n4cnc5c(N)ncnc54)[C@H](OP(=O)(O)O)[C@@H]3O)[C@@H](O)[C@H]2O)C=CC1` [NADPH] was tested. Which Kd [1] did it give?
The Kd was 1520 ± 90 nM.

And the Kd [2]?
The Kd was 1990 ± 160 nM.

What about the Kd [3] of the same molecule?
Its Kd is 1170 ± 100 nM.

And the Kd [4]?
Its Kd is 4300 ± 400 nM.

And the Kd [5]?
Its Kd is 6430 ± 680 nM.

What about the Kd [6] of the same molecule?
Its Kd is 1830 ± 210 nM.

B1: actKR (actinorhodin type II polyketide ketoreductase) (Streptomyces coelicolor A3(2); F189A) (protein)
chain: MATQDSEVALVTGATSGIGLEIARRLGKEGLRVFVCARGEEGLRTTLKELREAGVEADGRTCDVRSVPEIEALVAAVVERYGPVDVLVNNAGRPGGGATAELADELWLDVVETNLTGVFRVTKQVLKAGGMLERGTGRIVNIASTGGKQGVVHAAPYSASKHGVVGFTKALGLELARTGITVNAVCPGAVETPMAASVREHYSDIWEVSTEEAFDRITARVPIGRYVQPSEVAEMVAYLIGPGAAAVTAQALNVCGGLGNY
Which Km (purified protein) does the source give for B1 here?
The Km was 8630 ± 2010 µM.

What about the kcat (purified protein) of the same molecule?
The kcat was 0.049 ± 0.005 s⁻¹.

What about the kcat/Km (purified protein) of the same molecule?
Its kcat/Km is 5.7 ± 1.5 M⁻¹ s⁻¹.

B2: actKR (actinorhodin type II polyketide ketoreductase) (Streptomyces coelicolor A3(2); D109R) (protein)
chain: B1 chain with D109R, A189F
Which results are given for B2?
Km (purified protein): 1250 ± 400 µM; kcat (purified protein): 0.078 ± 0.01 s⁻¹; kcat/Km (purified protein): 62 ± 21 M⁻¹ s⁻¹

B3: actKR (actinorhodin type II polyketide ketoreductase) (Streptomyces coelicolor A3(2)) (protein)
chain: B1 chain with A189F
With B3 as the molecule, how does the Km (purified protein) read?
The Km was 760 ± 90 µM.

What about the kcat (purified protein) of the same molecule?
The kcat was 2.55 ± 0.12 s⁻¹.

What about the kcat/Km (purified protein) of the same molecule?
The kcat/Km was 3230 ± 320 M⁻¹ s⁻¹.

B4: actKR (actinorhodin type II polyketide ketoreductase) (Streptomyces coelicolor A3(2); V198A) (protein)
chain: B1 chain with A189F, V198A
For B4, which Km (purified protein) is on record?
The Km was 15500 ± 1490 µM.

And the kcat (purified protein)?
Its kcat is 0.24 ± 0.01 s⁻¹.

And the kcat/Km (purified protein)?
The kcat/Km was 16 ± 2 M⁻¹ s⁻¹.

B5: actKR (actinorhodin type II polyketide ketoreductase) (Streptomyces coelicolor A3(2); M194W) (protein)
chain: B1 chain with A189F, M194W
B5 was tested. Which Km (purified protein) did it give?
The Km was 3220 ± 650 µM.

And the kcat (purified protein)?
Its kcat is 0.43 ± 0.06 s⁻¹.

And the kcat/Km (purified protein)?
The kcat/Km was 130 ± 30 M⁻¹ s⁻¹.

B6: actKR (actinorhodin type II polyketide ketoreductase) (Streptomyces coelicolor A3(2); T145A) (protein)
chain: B1 chain with T145A, A189F
B6 was tested. Which Km (purified protein) did it give?
The Km was 420 ± 60 µM.

And the kcat (purified protein)?
The kcat was 0.18 ± 0.008 s⁻¹.

And the kcat/Km (purified protein)?
Its kcat/Km is 420 ± 60 M⁻¹ s⁻¹.
